# Data from US20250354164A1.
# Biological target: Cas9 protein fused to 10 tandem copies of GCN4 peptide separated by linkers (SunTag) (Streptococcus pyogenes) (UniProt Q99ZW2)
# Assay: cell-based or functional assay
# Sequence of UniProt Q99ZW2 (Q99ZW2 whole entry, the tested form may be a part): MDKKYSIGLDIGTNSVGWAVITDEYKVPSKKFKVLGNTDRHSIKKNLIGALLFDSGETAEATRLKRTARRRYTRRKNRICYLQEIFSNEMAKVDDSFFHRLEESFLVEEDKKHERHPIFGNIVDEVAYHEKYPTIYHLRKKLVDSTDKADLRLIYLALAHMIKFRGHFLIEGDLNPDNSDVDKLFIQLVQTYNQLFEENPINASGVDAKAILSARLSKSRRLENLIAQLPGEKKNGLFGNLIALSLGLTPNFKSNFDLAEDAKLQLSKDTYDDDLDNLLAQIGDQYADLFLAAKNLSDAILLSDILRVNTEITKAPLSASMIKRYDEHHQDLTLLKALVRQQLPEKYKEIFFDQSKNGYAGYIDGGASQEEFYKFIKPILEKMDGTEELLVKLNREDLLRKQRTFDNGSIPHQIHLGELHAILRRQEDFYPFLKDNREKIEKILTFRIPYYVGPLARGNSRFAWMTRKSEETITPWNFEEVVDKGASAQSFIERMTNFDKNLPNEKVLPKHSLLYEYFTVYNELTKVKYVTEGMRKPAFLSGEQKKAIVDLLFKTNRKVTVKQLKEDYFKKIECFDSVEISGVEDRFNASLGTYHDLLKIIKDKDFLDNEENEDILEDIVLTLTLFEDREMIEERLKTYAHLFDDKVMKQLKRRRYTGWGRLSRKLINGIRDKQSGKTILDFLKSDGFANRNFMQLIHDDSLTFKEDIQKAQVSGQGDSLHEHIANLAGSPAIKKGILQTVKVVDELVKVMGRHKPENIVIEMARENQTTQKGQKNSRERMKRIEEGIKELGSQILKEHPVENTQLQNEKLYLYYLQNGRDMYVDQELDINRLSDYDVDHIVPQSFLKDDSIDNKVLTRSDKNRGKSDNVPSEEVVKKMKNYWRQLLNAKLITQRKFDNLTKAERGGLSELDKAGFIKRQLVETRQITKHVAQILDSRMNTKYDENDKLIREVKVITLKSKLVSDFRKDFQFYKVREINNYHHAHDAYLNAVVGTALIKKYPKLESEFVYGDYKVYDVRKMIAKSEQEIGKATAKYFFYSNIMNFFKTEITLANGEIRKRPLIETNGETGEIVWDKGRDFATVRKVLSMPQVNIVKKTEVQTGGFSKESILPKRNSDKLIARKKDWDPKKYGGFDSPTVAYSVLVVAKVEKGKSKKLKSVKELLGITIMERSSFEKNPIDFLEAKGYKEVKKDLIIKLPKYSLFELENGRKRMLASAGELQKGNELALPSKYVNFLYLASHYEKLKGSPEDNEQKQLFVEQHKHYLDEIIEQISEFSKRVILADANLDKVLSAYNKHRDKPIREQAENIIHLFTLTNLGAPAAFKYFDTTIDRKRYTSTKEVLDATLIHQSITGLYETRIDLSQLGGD
substance,measurement,value
REDIT recombinator protein (SSAP RecT) fused to scFV antibody peptide (SunTag recruitment),HRD efficiencies (mKate knock-in assay),2 fold
